Values joined by “and” are separate entries in the source; they are usually repeats but may differ in a detail not shown here. Equal values may be shown once.

The target in test [1] is T1, human Ig1,2 TrkA (recombinant D4-D5 domain of human TrkA receptor) (human, UniProt P04629 191-392).
T1 construct: also called hTrkA Ig1,2; TrkA Ig1,2
T1 chain: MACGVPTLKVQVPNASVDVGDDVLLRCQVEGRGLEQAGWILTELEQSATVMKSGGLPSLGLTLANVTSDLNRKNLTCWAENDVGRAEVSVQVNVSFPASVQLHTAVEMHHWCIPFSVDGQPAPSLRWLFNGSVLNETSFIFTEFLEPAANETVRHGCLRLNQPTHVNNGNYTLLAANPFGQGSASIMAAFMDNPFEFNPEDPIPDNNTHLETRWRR
Nature of the test: SPR (Biacore X-100); scFv immobilised on CM5 chip, human Ig1,2 TrkA injected. On the procedure:
(§1) The antibodies were also shown to be specific for hTrkA and mTrkA by relative binding to the BIACore sensor chips coated with the appropriate antigen. Antibodies were immobilized by ammine coupling to Biosensor CM5 sensorchips (Pharmacia) according to the manufacturers instructions. Anti-TrkA scFv proteins were diluted at 20-50 μg/ml in suitable pre-concentration buffer (at least 2 pH unit below the pI of the scFv in order to get a net positive charge), chosen among the Acetate buffers. The scFvs were immobilized at 100 RU to get a low density immobilization. As binder, the recombinant protein consisting of D4-D5 domain of human and murine TrkA receptor (hTrkA Ig1,2 and mTrkA Ig1,2 respectively) were injected over the immobilized scFv with a contact time of 60 seconds and with a dissociation time of 400 seconds and the assay workflow placed 5 serial dilutions of the TrkA Ig1,2 (starting in the micromolar range and diluting 1:2 each time). The regeneration condition were mild (contact time 30 seconds, 10 mM Glycine pH2). On the basis of the resulting sensorgrams, the concentrations of TrkA Ig1,2 were adjusted to optimize, contact time, dissociation time and regeneration. Data were analysed by Bioevaluation Software (see results on Table II and Table III). The quality of the data fitting were checked by the value of Chi² and of the U-value.
(§2) We have carried out surface plasmon resonance (SPR) analyses to determine the binding kinetics of a panel of isolated anti-TrkA scFvs (SEQ ID NOs: 1, 2, 3, 4, 5, 6, 7, 8, 9, 10, 11, 12, 13, 14, 15 and 16). The scFvs were immobilized on a CM5 chip followed by injections at various concentration of human and murine Ig 1,2 TrkA (SEQ ID NO: 78) and mouse Ig1,2 TrkA (SEQ ID NO: 79).

In test [2] the target is T2, mouse Ig1,2 TrkA (recombinant D4-D5 domain of murine TrkA receptor) (mouse, UniProt Q3UFB7 193-413).
T2 construct: also called mTrkA Ig1,2
Nature of the test: SPR (Biacore X-100); scFv immobilised on CM5 chip, mouse Ig1,2 TrkA injected. Here is the method: as §1, §2

A further test concerns the target T3, human TrkB immunoadhesin (human; Camelus dromedarius, UniProt Q16620 32-430).
T3 construct: extracellular domain; also called hTrkB-Fc; TrkB immunoadhesins; not shown: Fc portion (immunoglobulin heavy chain constant region) of IgG2a camel antibody (Camelus dromedarius)
Description: specificity ELISA, antigens coated at 2 µg/mL, scFv at 50 ug/mL (upper panel) and 5 ug/mL (lower panel), OD 450 nm. Here is the method:
(§3) FIG. 3. Specificity ELISA of isolated anti-TrkA scFvs versus human TrkA immunoadhesin (hTrkA-Fc), human TrkB immunoadhesins (hTrkB-Fc), human TrkC immunoadhesins (hTrkC-Fc) and human p75 immunoadhesins (hp75-Fc). Human antigens were coated at 2 μg/mL. Anti-TrkA scFvs were used at 50 μg/mL (upper panel) and/or 5 μg/mL (lower panel). The mean absorbance at 450 nm of the experiments performed in duplicate wells is shown with SD indicated by the bars.

The target of a further test is T4, human TrkC immunoadhesin (human; Camelus dromedarius, UniProt Q16288 32-429).
T4 construct: extracellular domain; also called hTrkC-Fc; TrkC immunoadhesins; not shown: Fc portion (immunoglobulin heavy chain constant region) of IgG2a camel antibody (Camelus dromedarius)
The test is described as above. Here is the method:
as §3

The target of another test is T5, human p75 immunoadhesin (human; Camelus dromedarius, UniProt P08138 29-250).
T5 construct: extracellular domain; also called hp75-Fc; p75NTR immunoadhesin; not shown: Fc portion (immunoglobulin heavy chain constant region) of IgG2a camel antibody (Camelus dromedarius)
T5 sequence (looked up): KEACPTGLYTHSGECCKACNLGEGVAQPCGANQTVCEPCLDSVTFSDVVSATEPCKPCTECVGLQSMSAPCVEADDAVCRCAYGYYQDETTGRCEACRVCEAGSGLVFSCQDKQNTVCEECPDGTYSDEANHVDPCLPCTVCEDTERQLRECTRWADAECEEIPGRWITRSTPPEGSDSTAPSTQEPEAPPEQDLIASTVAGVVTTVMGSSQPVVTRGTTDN
Described as above. On the procedure:
as §3

For test [3], the target named is T6, human TrkA receptor (native, on TF-1 cells) (human, UniProt P04629 33-796).
T6 construct: also called TF1 expressing TrkA receptor; TF-1 cell line expressing human TrkA receptor
Nature of the test: chip-based flow cytometry (Agilent Bioanalyzer 2100) on TF-1 cells expressing human TrkA; scFv at 5 µg/ml per paragraph 159. Here is the method:
FIG. 5. FACS analysis performed with Bioanalyzer 2100. A cell fluid chip-based fluorescent cytometric assay that runs on Bioanalyzer 2100 (Agilent) for fast characterization of small population cell phenotypes was assessed. The assay determines the expression of specific cell surface markers. In this experiment, the specificity of scFvs on TF-1 cell line expressing human TrkA receptor was assessed. Six samples can be analyzed on each chip in one automated process. Results were in good agreement with conventional flow cytometry in quantisation.
10⁶ cells/sample=tot: 6×10⁶ cells are first centrifuged at 350 g for 5 min at room temperature (RT) and wash with 12 ml of Staining Buffer (SB) at RT. The pellet was resuspended in 3 ml of SB at 4° C. and aliquot 0.5 ml of suspension in 1.5 ml conical tubes. Cells were centrifuged again at 350 g for 5 min at 4° C. and the pellet was resuspended in 1 ml HBSS at 4° C. 125 μl 16% p-formaldehyde (final conc 1.7%) was added into each tube and then the sample was incubated for 10 min at 4° C. on tube rotator. After 10 minutes, 75 μl of 10% detergent solution-Tween 20 (final conc 0.6%) was added and the samples were then incubated for 10 min at 4° C. on tube rotator. Samples were then washed once with FACS Buffer (0.8 ml/sample) at 4° C. and then centrifuged at 350 g for 5 min at 4° C. Cells were resuspended with 80 μl/sample of FACS Buffer. 20 μl of a 5× primary antibody solution were added (final concentration of scFvs is 5 μg/ml). After incubation for 1 hour at 4° C. on tube rotator samples were washed with FACS Buffer (0.5 ml/sample) at 4° C. and then centrifuged 5 min at 350 g at 4° C. Cells were resuspended with 80 μl/sample of FACS Buffer. 20 μl of a 5× secondary antibody solution were added. Final concentration of mouse anti-V5 antibody is 0.20 μg/ml. The samples were incubated for 1 hour at 4° C. on tube rotator. After incubation for 1 hour at 4° C. on tube rotator samples were washed with FACS Buffer (0.5 ml/sample) at 4° C. and then centrifuged 5 min at 350 g at 4° C. Cells were resuspended with 80 μl/sample of FACS Buffer. 20 μl of a 5× tertiary antibody solution were added. Final concentration of anti-mouse IgG-Cy5 is 4 μg/ml (1:250 diluted). The samples were incubated for 1 hour at 4° C. on tube rotator.

Test [4] has as its target T6, human TrkA receptor (native, on TF-1 …). Nature of the test: cell-based or functional assay.
The target of test [5] is T1, human Ig1,2 TrkA (recombinant D4-D5 …). Description: SPR (Biacore X-100) kinetic analysis.
For test [6], the target named is T2, mouse Ig1,2 TrkA (recombinant D4-D5 …). Description: SPR (Biacore X-100) kinetic analysis.

T3 sequence (Q16620 32-430): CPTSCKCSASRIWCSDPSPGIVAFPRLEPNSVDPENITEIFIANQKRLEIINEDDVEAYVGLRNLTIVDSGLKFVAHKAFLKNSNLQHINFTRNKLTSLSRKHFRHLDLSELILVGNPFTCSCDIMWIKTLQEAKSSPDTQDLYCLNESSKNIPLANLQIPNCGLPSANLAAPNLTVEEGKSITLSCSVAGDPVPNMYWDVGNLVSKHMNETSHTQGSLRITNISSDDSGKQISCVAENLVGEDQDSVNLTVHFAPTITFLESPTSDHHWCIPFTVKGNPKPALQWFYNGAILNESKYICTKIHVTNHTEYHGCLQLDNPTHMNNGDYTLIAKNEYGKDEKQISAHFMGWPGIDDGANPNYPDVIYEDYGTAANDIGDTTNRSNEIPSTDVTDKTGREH
T6 sequence (P04629 33-796 limits assumed): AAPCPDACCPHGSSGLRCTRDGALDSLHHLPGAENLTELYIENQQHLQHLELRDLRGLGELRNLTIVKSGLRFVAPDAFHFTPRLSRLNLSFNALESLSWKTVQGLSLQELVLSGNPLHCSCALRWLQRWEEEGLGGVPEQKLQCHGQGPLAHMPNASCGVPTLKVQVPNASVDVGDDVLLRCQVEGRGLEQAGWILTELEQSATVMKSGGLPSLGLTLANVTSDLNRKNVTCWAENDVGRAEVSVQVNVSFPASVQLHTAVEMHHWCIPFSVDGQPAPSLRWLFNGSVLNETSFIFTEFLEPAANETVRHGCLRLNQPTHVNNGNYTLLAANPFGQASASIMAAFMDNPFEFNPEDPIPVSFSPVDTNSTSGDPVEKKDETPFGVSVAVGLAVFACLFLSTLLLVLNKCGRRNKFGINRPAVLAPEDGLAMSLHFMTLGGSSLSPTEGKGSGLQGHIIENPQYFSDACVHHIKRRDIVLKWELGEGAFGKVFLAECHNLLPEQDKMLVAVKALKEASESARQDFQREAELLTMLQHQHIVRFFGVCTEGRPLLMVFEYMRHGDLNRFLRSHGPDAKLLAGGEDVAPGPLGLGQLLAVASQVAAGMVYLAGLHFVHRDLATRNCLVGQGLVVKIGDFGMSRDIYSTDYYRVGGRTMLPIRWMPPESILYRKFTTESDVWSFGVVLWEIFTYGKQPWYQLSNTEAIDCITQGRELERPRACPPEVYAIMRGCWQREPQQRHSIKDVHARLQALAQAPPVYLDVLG
T2 sequence (Q3UFB7 other isoform, or with tags, fused parts or gaps limits assumed): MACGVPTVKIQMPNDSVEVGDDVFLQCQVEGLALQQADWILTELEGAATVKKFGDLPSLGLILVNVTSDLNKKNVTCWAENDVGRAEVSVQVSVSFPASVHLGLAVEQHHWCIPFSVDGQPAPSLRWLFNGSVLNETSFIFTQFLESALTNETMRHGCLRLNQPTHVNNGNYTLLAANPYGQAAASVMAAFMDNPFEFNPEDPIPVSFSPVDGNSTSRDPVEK

B1: anti-TrkA scFv CRB0022 (scFv)
scFv: DIVLTQSPALMSASPGEKVTMTCSASSSVSYMYWYQQKPRSSPKPWIYLTSNLASGVPARFSGSGSGTSYSLTISSMEAEDAATYYCQQWSSNPYTFGGRTRLEIKPSGGSTSGSGKPGSGEDSSGAQVQLQQSGAELVKPGASVELSCTASGFNIKDTYMHWVKQRPEQGLEWIGGIDPANGNTIYVPKFQGKATITADTSSNTAYLQLSSLTSEDTAVYYCARGGYDFDYAMDYWGQGTSVTVSS
notes: From mSPLINT selection
Consider B1, for which the Kd in test [1] worked out at 3.2 nM; in test [2], 1.16 nM. Moreover, the koff in [1] was found to be 2.94e-05 s⁻¹; in [2], 1.09e-05 s⁻¹. Further, the kon in test [1] stood at 9190 M⁻¹ s⁻¹; in test [2], 9430 M⁻¹ s⁻¹. Besides, the binding result in the test with human TrkB immunoadhesin is “no binding (tested: 50 ug/mL)”; with human TrkC immunoadhesin it was “no binding (tested: 50 ug/mL)”; with human p75 immunoadhesin, “no binding (tested: 50 ug/mL)”; in test [3], “binds”.

B2: anti-TrkA scFv CRB0088 (scFv)
scFv: QPVLTQSPPASASLGASVKLTCTLSSGHSSYAIAWHQQQPEKGPRYLMKVNSDGSHNKGDGIPDRFSGSRSGAERYLTISSLHSEDEADYYCQTWGAGGVVFGGGTKLTVLSGGSTSGSGKPGSGEGSSGTEVQLLESGGGLVQPGGSLRLSCAASGFTFSDHYMDWVRQAPGKGLEWVGRIRNKANSYTTEYAASVKGRFTISRDDSKKTLYLQMTSLKTDDTALYYCARDLGASDAFDLWGQGTMVTVSS
notes: From hSPLINT_09 selection
As to B2, the Kd in [1] came out at 1.16 nM; in test [2], 38.5 nM. Besides, the figures for the koff in test [1] and in test [2] were 3.2e-06 s⁻¹ and 0.000131 s⁻¹, respectively. The results for the kon in test [1] and in test [2] were 2760 M⁻¹ s⁻¹ and 3410 M⁻¹ s⁻¹, respectively. Also, the binding result with human TrkB immunoadhesin is “no binding (tested: 50 ug/mL)”; with human TrkC immunoadhesin it was “no binding (tested: 50 ug/mL)”; with human p75 immunoadhesin it was “no binding (tested: 50 ug/mL)”; in test [3], “binds”.

B3: anti-TrkA scFv CRB0072 (scFv)
scFv: DIQMTQSPISLSATVGDRVTITCRASQSIGRYLNWYQQKPGKAPKLLIYGASSLESGVPSRFSGSGSGTVFTLTISGLQPEDFATYCCQQSHSTAWTFGQGTKVEIKSGGSTSGSGKPGSGEGSSGTEVQLVETGGGLVQPGSSLRLSCATSGFTFINYGVHWVRQPPGKGLEWVASIWYEGSNEKYADSVKGRFTISRDNSRYTLHLQLNSLRAEDTADYYCVRDRGTGDYRNSRFYYGMDVWGQGTTVTVSS
notes: From hSPLINT_09 selection
In the case of B3, the Kd in test [1] is 2.04 nM; in test [2] it was 17 nM. Moreover, the koff in test [1] worked out at 7.48e-06 s⁻¹; in test [2], 4.93e-05 s⁻¹. In addition, the figures for the kon in [1] and in test [2] were 3680 M⁻¹ s⁻¹ and 2910 M⁻¹ s⁻¹, respectively. Besides, the binding result in the test with human TrkB immunoadhesin is listed as “no binding (tested: 50 ug/mL)”; with human TrkC immunoadhesin, “no binding (tested: 50 ug/mL)”; with human p75 immunoadhesin it was “no binding (tested: 50 ug/mL)”; in [3], “binds”.

B4: CRB0089_IgG4 (antibody, V domains shown)
VH: QVQLQESGPGLVKPSQTLSLTCAISGDSVSSNSAAWNWIRQSPSRGLEWLGRTFHRSRWYNEYPVSVRSRITINPDTSNNQFTLQLNSVTPDDTAVYYCARAPVAGLTFDIWGQGTMVTVSS
VL: QTVVTQEPSVSGAPGQRVTISCTGSSSIIGAGYEVHWYQHLPGTAPKLLIYDSINRPSGVPDRFSGSKSGTSASLAITGLQAEDEADYYCQSSAIFGGGTKLTVL
notes: Whole human IgG4 made in CHO-S cells; also called mAb CRB0089_IgG4; anti-TrkA CRB0089_IgG4
B4: the “IC50 of inhibition of NGF-mediated TF1 cell proliferation (MTT assay)” value in [4] is ~43 nM and ~40 nM. Further, in test [5], the equilibrium dissociation constant (Kd) worked out at 16.1 nM, the koff was 0.000103 s⁻¹ and the kon is 6420 M⁻¹ s⁻¹. Moreover, in test [6], the Kd was found to be 27.6 nM, the koff amounted to 0.000136 s⁻¹ and the kon was 4950 M⁻¹ s⁻¹.

Values taken from patent US20160244529A1 (ROTTAPHARM BIOTECH S R L, published 2016).
